Reference: patent US20230382976, “APTAMER ASSEMBLIES FOR PROTEIN CROSSLINKING” (UNIVERSITY OF FLORIDA RESEARCH FOUNDATION, INC., published 2023)

Experiments:
Type I collagen [1] = biological target: T1, Type I collagen (Rattus norvegicus, UniProt P02454;P02466 P02454:152-1207,P02466:86-1125); test: maximum binding at 17.83% mass fraction ssDNA; SYBR Safe depletion assay, deionized water, RT; settings: tags: rat tail tendon, Corning; chain copies: 2,1
Type I collagen [2] = biological target: T1, Type I collagen; test: maximum binding at 29.32% mass fraction ssDNA; SYBR Safe depletion assay, deionized water, RT; settings: tags: rat tail tendon, Corning; chain copies: 2,1
Type I collagen [3] = biological target: T1, Type I collagen; test: binding capacity identical to random ssDNA; fibers form above about 5 pmol ssDNA/ug collagen; settings: tags: rat tail tendon, Corning; chain copies: 2,1
Procedure: (§1) Complexes spontaneously formed upon mixing and were incubated at room temperature overnight followed by storage in solution at 4° C. until needed.
(§2) The amount of ssDNA in the DNA aptamer-collagen complex self-assembled fibers for different volume fractions of type I collagen and ssDNA oligomer was assessed fluorometrically by measuring the intensity of a fluorescent DNA stain. Solutions of different volume fractions were diluted at a 1:2 volume ratio of fiber solution to SYBR Safe DNA stain (Invitrogen). The stain concentrate was diluted first at a 1:10,000 volume ratio in deionized water. Then the mixtures were incubated protected from light for 30 minutes at room-temperature. After incubation, the mixtures were centrifuged at 2000 g for five minutes. Supernatant was plated in duplicate into black walled 96 well microplates and fluorescence intensity was measured by exciting at 488 nm and detecting at 520 nm using a UV-Vis Synergy H1 plate reader (BioTek). ssDNA in the supernatant was quantified using a standard curve fit with a 4-parameter logistic regression to correlate fluorescent intensity to ssDNA concentration. Individual standard curves were prepared for each ssDNA to account for any differences in DNA stain interaction with the two ssDNA sequences due to their secondary structure.

Type I collagen [4] = biological target: T1, Type I collagen; test: fiber formation by microscopy, deionized water; settings: tags: rat tail tendon, Corning; chain copies: 2,1
Type I collagen [5] = biological target: T1, Type I collagen; test: binding capacity identical to HAP aptamer; fibers form above about 5 pmol ssDNA/ug collagen; settings: tags: rat tail tendon, Corning; chain copies: 2,1
Procedure: as §1, §2

Type I collagen [6] = biological target: T1, Type I collagen; test: fiber formation, same as random sequence; none above 50% vol collagen; settings: tags: rat tail tendon, Corning; chain copies: 2,1
Source text: (§3) A VEGF-R2 targeting aptamer sequence was used in both a monovalent (single sequence) and divalent form (two single sequences tethered by a (PEG)6 linker). For all studies, we used a random sequence ssDNA of the same length and GC content as a control to determine the effect of the targeting and functionality of the DNA aptamer as compared to the effect of purely ssDNA, respectively.32 The VEGF-R2 targeting aptamer monovalent sequence is: ‘5-GATGTGAGTGTGTGACGAGCTACGACGTCTGGTGTAATTTATAAAGACACTGTGTATATCAACAACAGAACAAGGAAAGG-3’ (SEQ ID NO:14) .The random ssDNA oligomer monovalent sequence is: ‘5-TAATGAGAAGTATGTGTAGAGTCAATGAGATACGCAATTGGGAAGACAAGAGTATTGACTCGGACTGAGTACAATCGTCC-3’ (SEQ ID NO:15). […]
(§4) Fiber morphology for the different volume fractions of type I collagen and DNA aptamer was qualitatively assessed by phase and fluorescence microscopy using immobilized fibers. For fluorescence microscopy, immobilized fibers were stained with SYBR Safe DNA stain (Invitrogen) diluted at a 1:10,000 volume ratio in deionized water. […] To quantify surface coverage, full well images were taken with a Keyence BZ-X700 fluorescence microscope.

Type I collagen [7] = biological target: T1, Type I collagen; test: maximum binding at 23.16% mass fraction ssDNA; SYBR Safe depletion assay, deionized water, RT; settings: tags: rat tail tendon, Corning; chain copies: 2,1
Type I collagen [8] = biological target: T1, Type I collagen; test: fiber formation, same as VEGF-R2 aptamer; settings: tags: rat tail tendon, Corning; chain copies: 2,1
Source text: as §3, §4

Type I collagen [9] = biological target: T1, Type I collagen; test: maximum binding at 12.27% mass fraction ssDNA; SYBR Safe depletion assay, deionized water, RT; settings: tags: rat tail tendon, Corning; chain copies: 2,1
Type I collagen [10] = biological target: T1, Type I collagen; test: percent DNA bound rises with collagen; SYBR Safe depletion after centrifugation; fibers at 10-30% vol collagen; settings: tags: rat tail tendon, Corning; chain copies: 2,1; hairpins predicted
Procedure: In 96 well plate, mixtures of scrambled aptamer (1 μM) were mixed with rat tail type I collagen (0.3 mg/mL). Mixtures were at 25% increments from 0% to 100% volume fraction collagen with 1 replicate. Solutions were incubated at room temperature for 2 hours and then SYBR Safe DNA stain was added in a 2:1 ratio to the aptamer-collagen solutions and incubated for 30 minutes in the dark at room temperature. The solutions were centrifuged at 2000 g for 5 minutes and the supernatant was added to a 96 well plate giving 2 repeats per solution. Fluorescent intensity was measured by exciting at 488 nm and reading emission at 520 nm.

T1 sequence (P02454 152-1207, chain 1 of 2): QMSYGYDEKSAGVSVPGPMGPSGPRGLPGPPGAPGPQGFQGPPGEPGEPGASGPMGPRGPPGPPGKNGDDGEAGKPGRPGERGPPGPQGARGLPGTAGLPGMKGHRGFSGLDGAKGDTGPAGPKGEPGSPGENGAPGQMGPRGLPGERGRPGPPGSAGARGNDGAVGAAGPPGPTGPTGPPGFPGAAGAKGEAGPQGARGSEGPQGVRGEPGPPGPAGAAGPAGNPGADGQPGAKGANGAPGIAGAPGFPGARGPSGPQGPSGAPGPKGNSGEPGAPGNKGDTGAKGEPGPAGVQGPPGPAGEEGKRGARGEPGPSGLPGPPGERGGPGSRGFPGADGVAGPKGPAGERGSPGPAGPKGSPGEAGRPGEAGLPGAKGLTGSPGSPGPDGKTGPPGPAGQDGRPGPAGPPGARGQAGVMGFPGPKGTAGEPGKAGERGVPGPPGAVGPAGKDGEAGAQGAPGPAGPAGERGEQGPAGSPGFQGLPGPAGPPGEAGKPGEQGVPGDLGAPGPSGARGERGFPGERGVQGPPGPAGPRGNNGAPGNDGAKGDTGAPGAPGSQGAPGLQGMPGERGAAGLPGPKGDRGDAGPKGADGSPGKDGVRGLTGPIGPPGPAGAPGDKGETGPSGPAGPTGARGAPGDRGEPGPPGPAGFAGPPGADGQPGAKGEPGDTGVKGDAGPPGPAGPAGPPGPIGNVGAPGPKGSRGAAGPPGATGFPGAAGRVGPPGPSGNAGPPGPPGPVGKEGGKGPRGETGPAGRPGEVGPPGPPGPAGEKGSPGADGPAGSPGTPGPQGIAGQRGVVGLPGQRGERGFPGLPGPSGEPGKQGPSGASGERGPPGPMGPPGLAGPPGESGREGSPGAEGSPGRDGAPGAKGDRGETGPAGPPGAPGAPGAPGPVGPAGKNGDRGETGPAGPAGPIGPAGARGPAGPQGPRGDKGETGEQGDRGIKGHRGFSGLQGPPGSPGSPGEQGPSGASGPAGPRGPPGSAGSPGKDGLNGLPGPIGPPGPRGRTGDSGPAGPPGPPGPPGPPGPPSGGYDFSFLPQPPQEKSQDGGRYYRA
T1 sequence (P02466 86-1125, chain 2 of 2): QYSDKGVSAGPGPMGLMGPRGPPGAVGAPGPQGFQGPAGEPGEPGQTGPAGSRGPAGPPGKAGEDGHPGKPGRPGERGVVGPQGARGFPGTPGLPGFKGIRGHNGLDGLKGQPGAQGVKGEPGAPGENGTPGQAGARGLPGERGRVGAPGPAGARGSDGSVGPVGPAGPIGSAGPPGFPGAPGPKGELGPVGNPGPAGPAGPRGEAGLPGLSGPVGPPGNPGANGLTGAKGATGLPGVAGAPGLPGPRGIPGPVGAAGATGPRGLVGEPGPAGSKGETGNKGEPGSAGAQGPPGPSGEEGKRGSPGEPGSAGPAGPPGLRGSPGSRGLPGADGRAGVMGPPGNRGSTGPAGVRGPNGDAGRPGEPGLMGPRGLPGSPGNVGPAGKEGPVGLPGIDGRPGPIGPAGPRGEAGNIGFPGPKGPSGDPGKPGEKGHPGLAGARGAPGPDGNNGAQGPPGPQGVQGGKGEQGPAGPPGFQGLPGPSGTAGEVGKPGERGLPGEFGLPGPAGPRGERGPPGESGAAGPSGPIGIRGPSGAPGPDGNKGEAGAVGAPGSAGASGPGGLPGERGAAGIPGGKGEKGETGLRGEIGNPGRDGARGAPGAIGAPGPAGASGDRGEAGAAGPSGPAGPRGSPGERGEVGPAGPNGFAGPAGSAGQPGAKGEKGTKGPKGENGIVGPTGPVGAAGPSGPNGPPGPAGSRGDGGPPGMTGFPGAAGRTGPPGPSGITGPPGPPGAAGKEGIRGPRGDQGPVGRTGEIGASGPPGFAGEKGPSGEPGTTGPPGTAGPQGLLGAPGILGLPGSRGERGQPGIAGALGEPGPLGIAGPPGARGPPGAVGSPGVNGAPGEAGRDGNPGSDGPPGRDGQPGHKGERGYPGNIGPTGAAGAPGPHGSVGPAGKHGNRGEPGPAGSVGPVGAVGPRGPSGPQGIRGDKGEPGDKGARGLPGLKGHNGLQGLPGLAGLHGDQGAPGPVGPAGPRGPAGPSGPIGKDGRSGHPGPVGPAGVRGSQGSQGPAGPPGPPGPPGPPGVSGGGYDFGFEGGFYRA

B1: random 90 nt ssDNA (ssDNA)
DNA: AATTTAGGAGCTGAAGGTCAGGGCACCAGCAGCCTTTGGAAGCCTACAGGACAACAGTCAGCCTGGCTAGAAAAAAAAACAATGTCACAG
Question: Does B1 bind (Type I collagen [1])?
Answer: binds

Question: Does TCCCGCGAAATTAATACGACAGCACCACTTTTGGAGGGAGATTTC (ssDNA) [random 45 nt ssDNA] bind (Type I collagen [2])?
Answer: binds

Question: Does CAGGTGGGCGCGCTGTCGTGGGTGCTCGGGTGCGGTTGGG (ssDNA) [HAP aptamer (Aptamer G)] bind (Type I collagen [3])?
Answer: binds

Question: Does CAGGTGGGGGCGCTGTCGTGGGGGCTCGGGGGCGGTGGGG (ssDNA) [Aptamer G+] bind (Type I collagen [4])?
Answer: binds

Question: Does CAGGTGCGCGCGCTGTCGTGCGTGCTCGCGTGCGGTTGCG (ssDNA) [Aptamer G-] bind (Type I collagen [4])?
Answer: binds

Question: Does TAAAACGCGCTTAAGCTGGTGTTACTCGAGCGGTCTTCTA (ssDNA) [random ssDNA 40 nt (Sequence R)] bind (Type I collagen [5])?
Answer: binds

B2: VEGF-R2 aptamer monovalent (ssDNA)
DNA: GATGTGAGTGTGTGACGAGCTACGACGTCTGGTGTAATTTATAAAGACACTGTGTATATCAACAACAGAACAAGGAAAGG
Question: Does B2 bind (Type I collagen [6])?
Answer: binds

Question: Does CAGAGAATCTCCATTTTAGCACTTACCTGTGAC (ssDNA) [random 33 nt ssDNA] bind (Type I collagen [7])?
Answer: binds

B3: random ssDNA oligomer monovalent 80 nt (ssDNA)
DNA: TAATGAGAAGTATGTGTAGAGTCAATGAGATACGCAATTGGGAAGACAAGAGTATTGACTCGGACTGAGTACAATCGTCC
Question: Does B3 bind (Type I collagen [8])?
Answer: binds

Question: Does GGAGCTGTTGGCGTA (ssDNA) [random 15 nt ssDNA] bind (Type I collagen [9])?
Answer: binds

B4: scrambled 80 nt aptamer (ssDNA)
DNA: TAAAACGCGCTTAAGCTGGTGTTACTCGAGCGGTCTTCTATTGAAATAATTTCTGAAGGCACACGACATATGATCTTCAG
modifications: 5' amino C6 (5AmMC6)
Question: Does B4 bind (Type I collagen [10])?
Answer: binds
